Reference: the supplement of paper PMC9170038

System: MS2 coat protein
Assay: apparent KD of MS2 coat protein; designed switch direction (-1 OFF switch, 1 ON switch): -1; higher = weaker reporter binding
Method in brief: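 RNA switches sharing common flanks were transcribed by stalled E. coli RNA polymerase on Illumina chips. A doubling series of SNAP-549-labelled MS2 coat protein, from 0.7 or 1.5 nM to 3 µM, was applied in Tris-HCl pH 7.5 buffer with KCl, MgCl2, BSA, DTT, tRNA and Tween-20. Each step lasted 0.8–1.5 h at the bottom of the series and 10–20 min at the top. Normalised cluster fluorescence was curve-fitted, giving apparent KD as the per-design median over clusters.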

[1] = Eterna round: R95, input ligand: FMN 200 uM
[2] = Eterna round: R95, input ligand: microRNA oligo, concentration not stated
[3] = Eterna round: R95, input ligand: none
[4] = input ligand: microRNA oligo, concentration not stated

Sequence | apparent KD of MS2 coat protein [1] | apparent KD of MS2 coat protein [2] | apparent KD of MS2 coat protein [3] | apparent KD of MS2 coat protein (input ligand: FMN 200 uM) | apparent KD of MS2 coat protein (input ligand: none) | apparent KD of MS2 coat protein [4]
GAGUAGGUAGGAUAUACGAUAAUAUAGGGUAGAUAUAUAACACAUGAGGAUCACCCAUGUAGAAGGACCAUGAG [Mat - Exclusion 2 - Mod of my Tesla design - D62] (puzzle: Exclusion 2) | 118 nM | 37.1 nM | 35.1 nM |  |  | 
GAGUGCUGAGGAUAUACAUGAGGAUCACCCAUGUACUUCAGCUAGGAGACUAGCAUUGGUAGAAGGCAGUACUC [Mod of lroppy 22 - Jieux - Exclusion 3] (Eterna round: R97, puzzle: Exclusion 3) |  |  |  | 20.7 nM | 14.2 nM | 
GAUAAGGUAGGAUAUACGAAUAAAUAGGGUAGAAUAAUAACACAUGAGGAUCACCCAUGUAGAAGGACCAAUAG [Mat - Exclusion 2 - Mod of my Tesla design - D26] (puzzle: Exclusion 2) | 38.9 nM | 25.6 nM | 26.3 nM |  |  | 
GAUAAUGAAGGAUAUACAGGCGGUCCGUGACUAGUCUUCAUACAUGAGGAUCACCCAUGUAGAAGGUCAAUGUU [Eternabot (L1) Solution 64] (Eterna round: R97, puzzle: Exclusion 2) |  |  |  | 23.3 nM | 14.4 nM | 
GAUACACAUGAGGAUCACCCAUGUGAGGAUAUGCGUACGUUGUCCGUAGGCGACGUGCGCAGAAGGCGCGAGGU [Mat - Mod of JL D92] (puzzle: Exclusion 1) |  | 31.8 nM |  |  |  | 
GAUAGAGCAGGAUAUCGAGAUCCGCACAUGAGGAUCACCCAUGUUCGGUCGAAAGACCGACGAGAAGGGCUGUAUC [Omei Ex5 E7] (Eterna round: R97, puzzle: Exclusion 5) |  |  |  | 838 nM | 4190 nM | 
GAUCAACAUGAGGAUCACCCAUGUCAGGAUAUGAUACUAUGUACUUCGGUACAUAGUAUCAGAAGGGACAGAUC [Ex1-3: 1] (puzzle: Exclusion 1) |  | 101 nM |  |  |  | 
GAUCGACAUGAGGAUCACCCAUGUCAGGAUAUCGUCACUGGAGCUUCGGCUCCAGUGACGAGAAGGGAUAUAAU [E1/16-A1] (Eterna round: R97, puzzle: Exclusion 1) |  |  |  | 26.3 nM | 36.1 nM | 
GAUGAGAGAGGAUAUACAUGAGGAUCACCCAUGUAAUUUUCGGACAUGGAAGCUGGAUGUAGAAGGCUCGCAUG [Leritete] (puzzle: Exclusion 3) |  | 19.6 nM |  |  |  | 
GAUGCCAGAGGAUAUGCAUCGGGUUCCUGGUUAAGGCUGCCACAUGAGGAUCACCCAUGUAGAAGGCUGCCGUC [EX2 B.5] (Eterna round: R97, puzzle: Exclusion 2) |  |  |  | 17.4 nM | 9.94 nM | 
GAUGGACAUGAGGAUCACCCAUGUAAGGAUAUACGGUUGGUAGAGAGAGAGAGGAAUGGUAGAAGGUACGGAGG [JR_Exclu1_Sub052] (puzzle: Exclusion 1) | 38.7 nM | 43.1 nM | 55.9 nM |  |  | 
GAUGUCCAGCGAGGAUAUCUGGUAAAUAAAAUGAGAGAAGGCGCGAAGACAUGAGGAUCACCCAUGUUGUCGCAUGGGAGCCUG [Enqurete] (Eterna round: R96, puzzle: Exclusion NG 1) |  |  |  | 116 nM | 29.1 nM | 22.9 nM
GAUGUGGGUUUUCAGAGUAACAUGAGGAUCACCCAUGUAGAAGUUGAAGGUAUCAAGCGAAUGGCUCGUCAUAUGUG [JR_SV3TOV1_Sub050] (puzzle: Sensor v3, turn-off variant 1) | 161 nM | 239 nM | 322 nM |  |  | 
GAUUAACAUGAGGAUCACCCAUGUGAGGAUAUUGACUUGCUCACUUUCCGAUUCGAGUCGAGAAGGCGCAUCUU [1986#117] (Eterna round: R97, puzzle: Exclusion 1) |  |  |  | 23.9 nM | 21.9 nM | 
GAUUAAUGCAAGGAUAUGCUAUUAAUUUAUUUUGCAGAAGGUGCAACAUGAGGAUCACCCAUGUUGGAGGGUAU [JR_E6_Sub027] (Eterna round: R96, puzzle: Exclusion 6) |  |  |  | 34.9 nM | 25.1 nM | 17.8 nM
GAUUAAUGCAAGGAUAUGCUAUUAAUUUAUUUUGCAGAAGGUGCAACAUGAGGAUCACCCAUGUUGGAGGGUAU [JR_E6_Sub027] (puzzle: Exclusion 6) |  | 18.8 nM |  |  |  | 
GAUUAUGCAAGCUUUUGGGACAUGAGGAUCACCCAUGUUCGUCUUAUUGAUCUAGGUACGCUGACGUACCUAGAUCU [JL-sv1-2.32 Brourd mod] (Eterna round: R96, puzzle: Sensor v3, turn-off variant 1) |  |  |  | 14.8 nM | 17.2 nM | 52.1 nM

Sequence | apparent KD of MS2 coat protein [1] | apparent KD of MS2 coat protein [2] | apparent KD of MS2 coat protein [3] | apparent KD of MS2 coat protein (input ligand: FMN 200 uM) | apparent KD of MS2 coat protein (input ligand: none) | apparent KD of MS2 coat protein [4]
GAUUAUGCAAGCUUUUGGGACAUGAGGAUCACCCAUGUUCGUCUUAUUGAUCUAGGUACGCUGACGUACCUAGAUCU [JL-sv1-2.32 Brourd mod] (puzzle: Sensor v3, turn-off variant 1) | 18.1 nM | 62.2 nM | 17.6 nM |  |  | 
GAUUAUGCGAGCUUUAGGGACAUGAGGAUCACCCAUGUUCGUCUUAUUGGUCUAGAUGCACUAACAUACCUAAAUCU [JMF 26] (puzzle: Sensor v3, turn-off variant 1) | 18 nM | 24.4 nM | 18.2 nM |  |  | 
GAUUCGCGAGGAUAUACAGUCGAGUCCAUUACGUGUCUCGGACUUGAGGAUCACCCAAGUAGAAGGCGUCUCAU [salish99_ex2_r4_637] (Eterna round: R97, puzzle: Exclusion 2) |  |  |  | 55.8 nM | 57.8 nM | 
GAUUGACAUGAGGAUCACCCAUGUGAGGAUAUCGGCCGGACCGUGUUAGCUUCCGUCGCGAGAAGGCGCAUAGG [Exclusion 1 V38] (puzzle: Exclusion 1) | 42.3 nM | 42.8 nM | 36.7 nM |  |  | 
GAUUGACAUGAGGAUCACCCAUGUGAGGAUAUCGUCUGGUACGUGUUGGCUGGCAUCUCGAGAAGGCGCAUAGG [Exclusion 1 V56] (puzzle: Exclusion 1) | 103 nM | 59.4 nM | 76.4 nM |  |  | 
GAUUUGUAAGGAUAUCGUGCAAGUUUCAAAAGAGGCUUGUGCGAGAAGGUACAUGAGGAUCACCCAUGUAGGUU [Omei Ex4 B13] (Eterna round: R97, puzzle: Exclusion 4) |  |  |  | 42.6 nM | 24.1 nM | 
GCAAGAGCAGGAUAUCUAAUAUAUCACAUGAGGAUCACCCAUGUCCAGCGAAAGCUGGAGGGAGAAGGGCUCUUGC [Mat - Exclusion 5 - Eli mod - D101] (puzzle: Exclusion 5) | 58.9 nM | 123 nM | 150 nM |  |  | 
GCAAGCUUUUUCAAUAACAACAUGAGGAUCACCCAUGUUUAAGCUAUUACUUUUGGGCUCUUUAGUGCUAGUCUUAU [JR_STOV1_Sub037] (Eterna round: R97, puzzle: Sensor, turn-off variant 1) |  |  |  | 19.1 nM | 17.7 nM | 
GCACAGGCAGGAUAUACAUGAGGAUCACCCAUGUGAUCCCUUAAGUACAAAAGUACUAGUAGAAGGGCCUGUGC [Omei Ex3 Model Bachelor's Dilema v47] (Eterna round: R97, puzzle: Exclusion 3) |  |  |  | 646 nM | 1210 nM | 
GCACAGUGAGGAUAUACAUGAGGAUCACCCAUGUCCGCCGAUUAAGAGGUAUCAACGUGUAGAAGGUACCAGCG [Eternabot (Original) Solution 25] (Eterna round: R97, puzzle: Exclusion 3) |  |  |  | 17.2 nM | 18.5 nM | 
GCACGAAGUGUAGGAUAUCUGUGCGAUUAGCUCAGAGAAGGACACAUGAGGAUCACCCAUGUGUUCCGCGGAAGCAAAACGUGC [Eli exng1 - 056] (Eterna round: R96, puzzle: Exclusion NG 1) |  |  |  | 11.2 nM | 11.4 nM | 9.08 nM
GCACGACAUGAGGAUCACCCAUGUGAGGAUAUUUAGACGCCUGUGAAUGCAGCCAUUUAGAGAAGGCAUUGGGU [Eternabot (L1) Solution 99] (Eterna round: R97, puzzle: Exclusion 1) |  |  |  | 129 nM | 43.9 nM | 
GCACGGAGUGUAGGAUAUCUGUGCGAUUAGCUCAGAGAAGGACACAUGAGGAUCACCCAUGUGUUCCACGGAAACGUUCCGUGC [Eli exng1 - 049] (Eterna round: R96, puzzle: Exclusion NG 1) |  |  |  | 8.96 nM | 11.9 nM | 7.93 nM
GCACGGAGUGUAGGAUAUUAGUGCGAUUAGCACUGAGAAGGACAUGAGGAUCACCCAUGUUCCUCUAAAAUUAGCCUUCCGUGC [Eli exng1 - 036] (Eterna round: R96, puzzle: Exclusion NG 1) |  |  |  | 12.4 nM | 14.8 nM | 10.7 nM
GCACGGAUCGUAGGAUAUCAUUGCGAUUAGCUAUGAGAAGGACGACAUGAGGAUCACCCAUGUCCUCUAAUUAGCCUUCCGUGC [Eli exng1 - 017] (Eterna round: R96, puzzle: Exclusion NG 1) |  |  |  | 52.9 nM | 38.5 nM | 21.8 nM
GCACGGAUGGUAGGAUAUCUGUGCGAUUAGCUCAGAGAAGGACCACAUGAGGAUCACCCAUGUACCUCAAUUAACCUUCCGUGC [Eli exng1 - 021] (Eterna round: R96, puzzle: Exclusion NG 1) |  |  |  | 16.9 nM | 17.6 nM | 21 nM
GCACGGUAAGUGAGGAUAUACCUCUGGAUACAGAGGUAGAAGGCACAUGAGGAUCACCCAUGUCUCAGCCGUGC [Fiskers BMX 4 - 87] (puzzle: Brourd's mod of Exclusion 4) |  | 16.8 nM |  |  |  | 
